Test results taken from US11459586B2, “Methods for increasing efficiency of nuclease-mediated gene editing in stem cells” (President and Fellows of Harvard College, priority 2016, dated 2022).

What was measured:
human iPSC [1] = assay: mThy1 gene targeting in hiPSC co-transfected with DNA repair or viral inhibitor genes; type: cell-based
Method: FIGS. 9A-G. Effects of chemical and genetic inhibitors on mThy1 gene targeting in hiPSC. FIG. 9A. Mouse Thy1 gene targeting scheme. Human iPSC were nucleofected with the mThy1 targeting vector system plasmids and analyzed by flow cytometry five days later. The percentages of mThy1^+hThy1^−, mThy1^+hThy1^+, and mThy1^−hThy1^− cells for each sample (gated on live single cells) are graphed. Lines mark the percentage values for the control sample. FIGS. 9B-9D. Human iPSC were nucleofected with: 2 μg mThy1 targeting vector; 0.5 μg Cas9 plasmid; and 1.5 μg of sgRNA plasmids. The sample was divided into multiple wells and cultured in plain media (mTeSR1+10 μM Y-27632 ROCK inhibitor) supplemented with the indicated chemical inhibitor for three days. 20 μM pifithrin α, 200 μM peptide V5 (VPMLK, SEQ ID NO:31), 200 μM peptide control (IPMIK, SEQ ID NO:32), 50 μM TEMPOL, or the indicated concentrations of SCR7 or L755507 were used. FIG. 9B, mThy1^+hThy1^− (bottom portion of each bar in each graph), mThy1^+hThy1^+ (top portion of each bar in each graph). FIG. 9C, mThy1^+hThy1^− (bottom portion of each bar in each graph), mThy1^+hThy1^+ (top portion of each bar in left and center graphs, middle portion of each bar in right graph), and mThy1^−hThy1^− (top portion of each bar in right graph). FIG. 9D, mThy1^+hThy1^− (bottom portion of each bar in each graph), mThy1^+hThy1^+ (center portion of each bar in each graph), and mThy1^−hThy1^− (top portion of each bar in each graph). FIGS. 9E-9F. Human iPSC were nucleofected with: 2 μg mThy1 targeting vector plasmid; 0.5 μg Cas9 plasmid; 1 μg of sgRNA plasmids; and 0.5 μg of plasmid expressing the indicated DNA repair gene or pUC19 control (“Cas9 only”). For FIG. 9E, cultures were treated with 50 μM zVAD and 10 μM SB203580 post transfection. mThy1^+hThy1^− (bottom portion of each bar in each graph), mThy1^+hThy1^+ (top portion of each bar in left and center graphs, middle portion of each bar in right graph), and mThy1^−hThy1^− (top portion of each bar in right graph). FIG. 9F, mThy1^+hThy1^− (bottom portion of each bar in each graph), mThy1^+hThy1^+ (top portion of each bar in left and center graphs, middle portion of each bar in right graph), and mThy1^−hThy1^− (top portion of each bar in right graph). FIG. 9G. Human iPSC were nucleofected with: 2 μg mThy1 targeting vector plasmid; 0.5 μg Cas9 plasmid; and 1.5 μg of sgRNA plasmids. The indicated viral inhibitor genes were cloned into the Cas9 expression vector following an IRES sequence. Cultures were supplemented with 50 μM zVAD post transfection. mThy1^+hThy1^− (bottom portion of each bar in each graph), mThy1^+hThy1^+ (top portion of each bar in left and center graphs, middle portion of each bar in right graph), and mThy1^−hThy1^− (top portion of each bar in right graph). […]

human iPSC [2] = assay: gene disruption of hiPSC surface markers with truncated sgRNAs and Trex2 (flow cytometry); type: cell-based; settings: 1 μg Trex2 plasmid with Cas9 and sgRNA plasmids, five days
Description: FIG. 12. Gene disruption activity of truncated sgRNAs with and without the Trex2 endonuclease. Full length (20 bp of target complementarity) and Truncated (18-19 bp) sgRNAs were designed to target the coding region of four genes expressed on the surface of hiPSC (top) and cloned into expression plasmids under the constitutive U6 promoter. The Cas9 nuclease and Trex2 endonuclease were also cloned into separate expression plasmids under the constitutive EF1α promoter. Human iPSC were nucleofected with 0.5 μg Cas9 plasmid, 1 μg sgRNA plasmid, and 1 μg of either pUC19 control or Trex2 plasmid. Five days later, cells were stained for expression of the surface markers (Thy 1, CD147, HLA-A2, or HLA-BC) and analyzed by flow cytometry gated on live single cells (open histograms). Shaded histograms indicate staining of an untargeted hiPSC control. The percent of cells that have lost expression of the surface markers is shown.
Pluripotency of iPSC cultures was verified by flow cytometry staining using anti-human Tra-1/60 PE (TRA-1-60, BD) and anti-human Oct3/4 eFluor 660 (EM92, eBioscience) with the fixation buffer sold under the trademark BD CYTOFIX™ and permeabilization buffer sold under the trademark PHOSFLOW™ Perm/Wash buffers. […] Viable cell counts were measured with the cell analyzer sold under the trademark MUSE® Count & Viability Assay kit (EMD Millipore). […]

[3] = 0.5 μg plasmid overexpressing the DNA repair gene, 50 μM zVAD and 10 μM SB203580 post transfection (FIG. 9E)

B1: CtIP: principal HR mediator, overexpressed from plasmid (protein, UniProt Q99708 1-897, looked up)
DNA endonuclease RBBP8: MNISGSSCGSPNSADTSSDFKDLWTKLKECHDREVQGLQVKVTKLKQERILDAQRLEEFFTKNQQLREQQKVLHETIKVLEDRLRAGLCDRCAVTEEHMRKKQQEFENIRQQNLKLITELMNERNTLQEENKKLSEQLQQKIENDQQHQAAELECEEDVIPDSPITAFSFSGVNRLRRKENPHVRYIEQTHTKLEHSVCANEMRKVSKSSTHPQHNPNENEILVADTYDQSQSPMAKAHGTSSYTPDKSSFNLATVVAETLGLGVQEESETQGPMSPLGDELYHCLEGNHKKQPFEESTRNTEDSLRFSDSTSKTPPQEELPTRVSSPVFGATSSIKSGLDLNTSLSPSLLQPGKKKHLKTLPFSNTCISRLEKTRSKSEDSALFTHHSLGSEVNKIIIQSSNKQILINKNISESLGEQNRTEYGKDSNTDKHLEPLKSLGGRTSKRKKTEEESEHEVSCPQASFDKENAFPFPMDNQFSMNGDCVMDKPLDLSDRFSAIQRQEKSQGSETSKNKFRQVTLYEALKTIPKGFSSSRKASDGNCTLPKDSPGEPCSQECIILQPLNKCSPDNKPSLQIKEENAVFKIPLRPRESLETENVLDDIKSAGSHEPIKIQTRSDHGGCELASVLQLNPCRTGKIKSLQNNQDVSFENIQWSIDPGADLSQYKMDVTVIDTKDGSQSKLGGETVDMDCTLVSETVLLKMKKQEQKGEKSSNEERKMNDSLEDMFDRTTHEEYESCLADSFSQAADEEEELSTATKKLHTHGDKQDKVKQKAFVEPYFKGDERETSLQNFPHIEVVRKKEERRKLLGHTCKECEIYYADMPAEEREKKLASCSRHRFRYIPPNTPENFWEVGFPSTQTCMERGYIKEDLDPCPRPKRRQPYNAIFSPKGKEQKT
mThy1 gene targeting efficiency (human iPSC [1]; [3]): did not improve mThy1 gene targeting efficiency

B2: Rad51: DNA repair gene overexpressed from plasmid (protein, UniProt Q06609 2-339, looked up)
DNA repair protein RAD51 …: AMQMQLEANADTSVEEESFGPQPISRLEQCGINANDVKKLEEAGFHTVEAVAYAPKKELINIKGISEAKADKILAEAAKLVPMGFTTATEFHQRRSEIIQITTGSKELDKLLQGGIETGSITEMFGEFRTGKTQICHTLAVTCQLPIDRGGGEGKAMYIDTEGTFRPERLLAVAERYGLSGSDVLDNVAYARAFNTDHQTQLLYQASAMMVESRYALLIVDSATALYRTDYSGRGELSARQMHLARFLRMLLRLADEFGVAVVITNQVVAQVDGAAMFAADPKKPIGGNIIAHASTTRLYLRKGRGETRICKIYDSPCLPEAEAMFAINADGVGDAKD
mThy1 gene targeting efficiency (human iPSC [1]; [3]): reduced gene targeting efficiency

B3: Trex2: endonuclease Trex2, expressed from plasmid (protein, UniProt Q9BQ50 1-236, looked up)
Three prime repair …: MSEAPRAETFVFLDLEATGLPSVEPEIAELSLFAVHRSSLENPEHDESGALVLPRVLDKLTLCMCPERPFTAKASEITGLSSEGLARCRKAGFDGAVVRTLQAFLSRQAGPICLVAHNGFDYDFPLLCAELRRLGARLPRDTVCLDTLPALRGLDRAHSHGTRARGRQGYSLGSLFHRYFRAEPSAAHSAEGDVHTLLLIFLHRAAELLAWADEQARGWAHIEPMYLPPDDPSLEA
gene disruption frequencies (human iPSC [2]): increased gene disruption frequencies | mThy1 gene targeting efficiency (human iPSC [1]; Trex2 plasmid added (FIG. 9F)): reduced mThy1 gene targeting efficiency

B4: MRE11a: principal HR mediator, overexpressed from plasmid (protein, UniProt P49959 2-708, looked up)
Double-strand break repair …: STADALDDENTFKILVATDIHLGFMEKDAVRGNDTFVTLDEILRLAQENEVDFILLGGDLFHENKPSRKTLHTCLELLRKYCMGDRPVQFEILSDQSVNFGFSKFPWVNYQDGNLNISIPVFSIHGNHDDPTGADALCALDILSCAGFVNHFGRSMSVEKIDISPVLLQKGSTKIALYGLGSIPDERLYRMFVNKKVTMLRPKEDENSWFNLFVIHQNRSKHGSTNFIPEQFLDDFIDLVIWGHEHECKIAPTKNEQQLFYISQPGSSVVTSLSPGEAVKKHVGLLRIKGRKMNMHKIPLHTVRQFFMEDIVLANHPDIFNPDNPKVTQAIQSFCLEKIEEMLENAERERLGNSHQPEKPLVRLRVDYSGGFEPFSVLRFSQKFVDRVANPKDIIHFFRHREQKEKTGEEINFGKLITKPSEGTTLRVEDLVKQYFQTAEKNVQLSLLTERGMGEAVQEFVDKEEKDAIEELVKYQLEKTQRFLKERHIDALEDKIDEEVRRFRETRQKNTNEEDDEVREAMTRARALRSQSEESASAFSADDLMSIDLAEQMANDSDDSISAATNKGRGRGRGRRGGRGQNSASRGGSQRGRADTGLETSTRSRNSKTAVSASRNMSIIDAFKSTRQQPSRNVTTKNYSEVIEVDESDVEEDIFPTTSKTDQRWSSTSSSKIMSQSQVSKGVDFESSEDDDDDPFMNTSSLRRNRR
mThy1 gene targeting efficiency (human iPSC [1]; [3]): did not improve mThy1 gene targeting efficiency
